The target of test [1] is T1, EGFR-pY992 (SEQ ID NO: 5) (Homo sapiens, UniProt P00533).
T1 construct: phosphotyrosine at Tyr992 (chemical modification); purchased New England Peptide, Fitchburg Mass; host or cells: chemical synthesis
As to the kind of experiment: Single-well 4-spot assay for multiple peptide-protein interactions. It is filed as binding. As to conditions: 4-spot plate. The source says: Four phosphopeptides and their cognate binding proteins (Table 14) were selected for an integrated assay of multiple peptide-protein interaction in 4-spot Multi-Array plates. The IkBa-24pp peptide and its binding protein, βTRCP, are described in Example 10. […] These phosphotyrosine containing peptides are recognized by different adaptor or effecter proteins of the receptor tyrosine kinase signaling pathway.
These four peptides were coupled to BSA carrier protein through cystine residue. After purification on PD-10 gel filtration columns, the peptide-BSA conjugates were then deposited on the assay domains of a 4-spot multi-array IPR plate (i.e., in one of the four exposed regions of working electrode defined by the dielectric layer) with an automated micro-dispensing system (Bio-Dot Dispenser, Bio-Dot, Irvine Calif.). […] These plates are dried then used or stored under desiccated conditions. A few hours prior to usage the plates were rehydrated and blocked with 3% BSA in PBS. […] The in vitro translated and biotin-labeled proteins were then assayed in the 4-spot multi-array IPR plates under conditions described in Example 10.

For test [2], the target named is T2, IkB peptide (SEQ ID NO: 1) (Homo sapiens, UniProt P25963).
T2 construct: two phosphoserines in the DSGLDS motif (chemical modification); purchased New England Peptide, Fitchburg Mass; host or cells: chemical synthesis
As to the kind of experiment: 96-well screen for phosphopeptide binding proteins, 7-spot IPR plates. The following applies: two steps of normalization, top 9 clones. The protocol: (§1) A screen was conducted using 7-spot IPR plates. The 7 spot NPT IPR plates are described in more detail in copending Provisional Application No. 60/301,932 (entitled “Assay Plates, Reader Systems and Methods for Luminescence Test Measurements”, filed on Jun. 29, 2001, hereby incorporated by reference) and particularly in the description of Plate Type D in Example 6.1 (NPT IPR plate) and U.S. application Ser. Nos. 10/185,274 and 10/185,363, filed Jun. 28, 2002, each hereby incorporated by reference. These plates consist of a 96 wells with 7 zones (spots) for the immobilization of proteins or other reagents. Each spot was coated with BSA conjugated to either a single phosphopeptide or multiple phosphopeptides.
(§2) The plates were prepared essentially as described in example 12. The seven spots supported, respectively, the following BSA conjugates IkB, pY992, pY1068, pY1148, Myc, “A”, and “6-P”. “A” refers to a conjugate of BSA with multiple peptides: IkB, pY1148, Myc which were then coupled to BSA. “6-P” refers to a conjugate of BSA with the following multiple peptides: IkB, pY1148, pY992, pY1068, Smad3C.
(§3) For the assay, 4 ul from TnT reaction product described above were added to the coated plate containing 50 μl of binding buffer supplemented with 50 ng/well Ru-Streptavidin. The binding reaction was allowed to proceed at room temperature for 1 hour with constant shaking. […] The ECL signals were measured using an imaging plate reader (IPR). The raw data from the IPR reader was then normalized using two steps of normalization. The first round was based on the 50 lowest values for a given specific spot. These 50 lowest values were averaged and divided into each signal for that spot to generate a signal value which could be compared readily between the peptide-conjugate spots. This was then followed by a second round of normalization using the lowest normalized value for a spot within a well to divide the signals from the other spots. This method provides a means to reduce the signals from proteins which bound non specifically to all the spots within a well. […]

For test [3], the target named is T3, Myc peptide (SEQ ID NO: 4) (Homo sapiens, UniProt P01106).
T3 construct: phosphothreonine (T58) and phosphoserine (S62) (chemical modification); purchased New England Peptide, Fitchburg Mass; host or cells: chemical synthesis
The test is described as above. As to conditions: two steps of normalization; top 9 clones. The protocol:
as §1, §2, §3

Where “and” joins values, the source holds several entries; their conditions need not be identical. Equal values may be shown once.

T2 sequence (P25963 with tags, fused parts or gaps limits assumed): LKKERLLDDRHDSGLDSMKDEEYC
T3 sequence (P01106 with tags, fused parts or gaps limits assumed): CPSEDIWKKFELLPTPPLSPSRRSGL

Take “3872466: IMAGE clone protein: mCBP [compound 3872466]”: in test [1], the “ECL signal, spot 4 EGFR-pY992” value turned out to be 498.
For “3491843: IMAGE clone protein: βTRCP1 [compound 3491843]”, the “normalized ECL signal, IkBa spot” value in test [2] worked out at 12; in test [2] (βTRCP positive control), 23. Further, the “normalized ECL signal, Myc spot” value in test [3] is 4 and 8.

The values are drawn from patent US7063946B2, “Methods, reagents, kits and apparatus for protein function analysis” (Meso Scale Technologies, LLC., priority 2001, dated 2006).
